The values below come from PMC3252399.

Data set [1] concerns the target K. lactis Ndc10 DI–III (residues 1–534), purified (Kluyveromyces lactis). Nature of the data set: AUC.
The target of another data set is T1, Ndc10 DI-III (Kluyveromyces lactis, UniProt Q6CPM4 1-534).
T1 sequence: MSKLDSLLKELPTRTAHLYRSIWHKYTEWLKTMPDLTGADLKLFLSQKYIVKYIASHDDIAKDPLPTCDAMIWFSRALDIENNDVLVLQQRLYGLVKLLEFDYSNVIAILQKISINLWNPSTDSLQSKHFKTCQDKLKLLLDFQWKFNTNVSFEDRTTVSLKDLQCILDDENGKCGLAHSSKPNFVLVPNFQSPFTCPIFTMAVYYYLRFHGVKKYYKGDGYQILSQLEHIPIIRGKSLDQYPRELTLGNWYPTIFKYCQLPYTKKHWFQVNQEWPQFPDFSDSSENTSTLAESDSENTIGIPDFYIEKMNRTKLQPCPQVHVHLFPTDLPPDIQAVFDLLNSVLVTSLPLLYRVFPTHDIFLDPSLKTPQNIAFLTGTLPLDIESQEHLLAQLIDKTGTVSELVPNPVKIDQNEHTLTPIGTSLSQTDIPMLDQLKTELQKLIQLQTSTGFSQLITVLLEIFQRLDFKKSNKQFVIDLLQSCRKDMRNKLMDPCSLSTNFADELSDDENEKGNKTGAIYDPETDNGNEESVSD
Nature of the data set: EMSA. Background: In EMSA bound probe runs differently from free probe, usually more slowly.

For a further data set, the target named is T2, Ndc10 DI-II (Kluyveromyces lactis, UniProt Q6CPM4 1-403).
T2 sequence: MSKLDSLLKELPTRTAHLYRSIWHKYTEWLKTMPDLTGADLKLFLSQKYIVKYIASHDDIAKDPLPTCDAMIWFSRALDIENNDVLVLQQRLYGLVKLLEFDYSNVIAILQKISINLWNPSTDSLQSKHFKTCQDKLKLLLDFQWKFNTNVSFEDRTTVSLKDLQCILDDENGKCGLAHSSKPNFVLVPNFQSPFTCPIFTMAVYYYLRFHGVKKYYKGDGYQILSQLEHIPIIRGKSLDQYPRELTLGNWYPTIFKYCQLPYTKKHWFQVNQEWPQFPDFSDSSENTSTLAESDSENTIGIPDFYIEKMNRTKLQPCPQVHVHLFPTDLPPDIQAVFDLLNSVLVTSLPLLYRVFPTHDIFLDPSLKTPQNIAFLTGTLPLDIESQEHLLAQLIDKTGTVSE
Nature of the data set: ITC. (Isothermal titration calorimetry measures the heat released or taken up as one component is titrated into another.)

The target of the next data set is T3, Ndc10 DV (Kluyveromyces lactis, UniProt Q6CPM4 631-736).
T3 sequence: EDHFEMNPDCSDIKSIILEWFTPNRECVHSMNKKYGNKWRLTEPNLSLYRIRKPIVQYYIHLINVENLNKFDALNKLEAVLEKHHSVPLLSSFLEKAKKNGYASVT
In words: EMSA.

Another data set addresses T4, Ndc10 full-length (Kluyveromyces lactis, UniProt Q6CPM4 1-736).
T4 sequence: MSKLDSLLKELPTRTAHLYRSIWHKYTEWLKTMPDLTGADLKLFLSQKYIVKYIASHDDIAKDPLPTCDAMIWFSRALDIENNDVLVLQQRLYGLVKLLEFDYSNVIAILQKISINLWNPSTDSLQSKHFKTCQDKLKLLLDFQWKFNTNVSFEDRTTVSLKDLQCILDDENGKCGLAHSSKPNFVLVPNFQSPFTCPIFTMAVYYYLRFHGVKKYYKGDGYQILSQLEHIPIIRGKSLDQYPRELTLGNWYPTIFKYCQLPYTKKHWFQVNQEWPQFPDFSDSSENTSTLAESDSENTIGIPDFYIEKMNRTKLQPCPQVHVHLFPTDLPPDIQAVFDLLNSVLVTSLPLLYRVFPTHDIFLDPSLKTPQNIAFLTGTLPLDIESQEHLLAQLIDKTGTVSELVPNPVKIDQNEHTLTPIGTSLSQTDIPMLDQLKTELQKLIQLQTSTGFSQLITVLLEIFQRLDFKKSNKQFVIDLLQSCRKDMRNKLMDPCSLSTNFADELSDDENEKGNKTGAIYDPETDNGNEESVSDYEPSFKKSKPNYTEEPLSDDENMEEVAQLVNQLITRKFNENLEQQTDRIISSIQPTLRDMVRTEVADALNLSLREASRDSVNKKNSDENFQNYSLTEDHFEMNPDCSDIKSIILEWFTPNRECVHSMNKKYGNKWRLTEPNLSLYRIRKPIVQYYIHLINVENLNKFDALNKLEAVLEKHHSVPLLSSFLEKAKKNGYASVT
Nature of the data set: fluorescence anisotropy. (Polarisation of emitted light reports the rotation of a fluorescent probe.)

One may read the stoichiometry N as a count of units in the complex or per binding partner. For “K. lactis Ndc10 DI–III (residues 1–534), purified (domain or fragment)”, in data set [1], the stoichiometry N stood at 2.

B1: 30 bp CEN1 CDEIII (dsDNA)
DNA 1: TGCTTTATGTTTCCGAAAATTATTTTATTA
DNA 2: TAATAAAATAATTTTCGGAAACATAAAGCA
Take B1: the binding result is given as “binds” in the data set with Ndc10 DI-III, “binds” in the data set with Ndc10 DI-II, “no binding” with Ndc10 DV and “binds” with Ndc10 full-length.
